Laboratory results reported in PMC6247239 (Protein Science : A Publication of the Protein Society, 2018).

T1: FtsA (Escherichia coli, UniProt P0ABH0 1-420)
T1 sequence: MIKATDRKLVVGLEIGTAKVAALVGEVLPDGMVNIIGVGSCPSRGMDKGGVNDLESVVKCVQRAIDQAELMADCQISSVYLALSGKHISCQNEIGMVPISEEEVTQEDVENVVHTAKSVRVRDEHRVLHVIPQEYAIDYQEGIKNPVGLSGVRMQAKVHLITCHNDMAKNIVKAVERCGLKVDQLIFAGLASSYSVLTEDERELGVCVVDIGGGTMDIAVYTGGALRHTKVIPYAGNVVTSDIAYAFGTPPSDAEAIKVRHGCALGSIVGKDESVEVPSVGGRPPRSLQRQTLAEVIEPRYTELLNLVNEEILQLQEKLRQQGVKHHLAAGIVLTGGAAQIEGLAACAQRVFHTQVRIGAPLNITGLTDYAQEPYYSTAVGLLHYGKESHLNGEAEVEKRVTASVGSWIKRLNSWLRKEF

B1: SNX16 PX-CC unit (domain or fragment)
chain: DRPSTPTILGYEVMEERAKFTVYKILVKKTPEESWVVFRRYTDFSRLNDKLKEMFPGFRLALPPKRWFKDNYNADFLEDRQLGLQAFLQNLVAHKDIANCLAVREFLCLDDPPGPFDSLEESRAFCETLEETNYRLQKELLEKQKEMESLKKLLSEKQLHIDTLENRIRTLSLEPEESLDVSETEGEQILKVESSALEVDQDVLDEESRADNKPCLSFSEPENAVSEIEVAEVAYDAEED
B2: human glutathione transferase M1a-1a (enzyme)
chain: MPMILGYWDIRGLAHAIRLLLEYTDSSYEEKKYTMGDAPDYDRSQWLNEKFKLGLDFPNLPYLIDGAHKITQSNAILCYIARKHNLCGETEEEKIRVDILENQTMDNHMQLGMICYNPEFEKLKPKYLEELPEKLKLYSEFLGKRPWFAGNKITFVDFLVYDVLDLHRIFEPKCLDAFPNLKDFISRFEGLEKISAYMKSSRFLPRPVFSKMAVWGNK
B3: FtsZ (natural protein)
chain: MFEPMELTNDAVIKVIGVGGGGGNAVEHMVRERIEGVEFFAVNTDAQALRKTAVGQTIQIGSGITKGLGAGANPEVGRNAADEDRDALRAALEGADMVFIAAGMGGGTGTGAAPVVAEVAKDLGILTVAVVTKPFNFEGKKRMAFAEQGITELSKHVDSLITIPNDKLLKVLGRGISLLDAFGAANDVLKGAVQGIAELITRPGLMNVDFADVRTVMSEMGYAMMGSGVASGEDRAEEAAEMAISSPLLEDIDLSGARGVLVNITAGFDLRLDEFETVGNTIRAFASDNATVVIGTSLDPDMNDELRVTVVATGIGMDKRPEITLVTNKQVQQPVMDRYQQHGMAPLTQEQKPVAKVVNDNAPQTAKEPDYLDIPAFLRKQAD
B4: MinC (natural protein)
chain: MSNTPIELKGSSFTLSVVHLHEAEPKVIHQALEDKIAQAPAFLKHAPVVLNVSALEDPVNWSAMHKAVSATGLRVIGVSGCKDAQLKAEIEKMGLPILTEGKEKAPRPAPTPQAPAQNTTPVTKTRLIDTPVRSGQRIYAPQCDLIVTSHVSAGAELIADGNIHVYGMMRGRALAGASGDRETQIFCTNLMAELVSIAGEYWLSDQIPAEFYGKAARLQLVENALTVQPLN

Legend:
[1] = biological target: procaspase-2 phosphorylated at S139 and S164 (human) (UniProt P42575); test: fluorescence polarisation + native gel or EMSA + SEC + AUC
Chain of procaspase-2 phosphorylated at S139 and S164 (human) (P42575 whole entry, the tested form may be a part): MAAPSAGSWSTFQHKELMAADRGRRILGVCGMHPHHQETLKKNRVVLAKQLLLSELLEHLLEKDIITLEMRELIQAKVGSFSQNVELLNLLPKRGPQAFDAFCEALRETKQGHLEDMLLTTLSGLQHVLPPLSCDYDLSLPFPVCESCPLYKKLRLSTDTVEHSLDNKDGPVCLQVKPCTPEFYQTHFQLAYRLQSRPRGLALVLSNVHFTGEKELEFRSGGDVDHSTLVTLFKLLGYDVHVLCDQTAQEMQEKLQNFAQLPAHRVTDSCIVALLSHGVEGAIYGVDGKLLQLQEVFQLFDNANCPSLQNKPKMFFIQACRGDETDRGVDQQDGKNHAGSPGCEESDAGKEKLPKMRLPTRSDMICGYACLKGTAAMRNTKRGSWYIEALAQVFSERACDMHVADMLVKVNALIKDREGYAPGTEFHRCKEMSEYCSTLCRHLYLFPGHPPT

[2] = biological target: BECN1 coiled-coil domain (Homo sapiens) (UniProt Q14457); details: cited from earlier work
[3] = biological target: PBP2a (Staphylococcus aureus (MRSA))
[4] = biological target: Beclin-1 lacking the BARA domain (human)
Ras = Ras (UniProt P01112)
[5] = biological target: radical-generating subunit of the class I ribonucleotide reductase of Leeuwenhoekiella blandensis (Leeuwenhoekiella blandensis); test: multi-detection SEC, GEMMA, DLS
crystal structure = biological target: the molecule itself; test: crystal structure
[6] = biological target: the molecule itself; test: SEC + other: dynamic light scattering, HDX-MS, spectroscopy
FtsA = biological target: T1, FtsA; test: co-sedimentation
FtsZ = biological target: B3; test: co-sedimentation

Molecule: 14-3-3 protein (from UniProt P63104 1-245) (natural protein)
- stoichiometry N [1]: 1

Molecule: BECN1 coiled-coil domain (from UniProt Q14457)
- Kd [2]: 48 µM

Molecule: BLIP-II N50A:Y113H (natural protein)
- Kd [3]: 0.05 µM

Molecule: Beclin-1 lacking the BARA domain (domain or fragment)
- fold weaker homodimer KD than the full-length protein [4]: 3.5 fold

Molecule: Ras (from UniProt P01112 1-189) (natural protein)
- percent of the Ras population forming dimers (Ras): < 10%

Molecule: radical-generating subunit of the class I ribonucleotide reductase of Leeuwenhoekiella blandensis (enzyme)
- stoichiometry N [5]: 4

Molecule: B1
- stoichiometry N (crystal structure): 2

Molecule: B2
- stoichiometry N [6]: 2

Molecule: B3
- binding result (FtsA): binds

Molecule: B4
- binding result (FtsZ): binds
